Laboratory results reported in US20080267953A1 (Kyowa Kirin, published 2008).
Changes are numbered by the printed parent chain.

B1: anti-PERP CDR-modified antibody ver.1 (antibody, V domains shown)
VH: DVQLQESGPGLVKPSQSLSLTCTVTGFSITTEYAWNWIRQFPGNRLEWMGYIGYTGRTSYSPSLKSRISITRDTSKNQFFLQLNSVTTEDTATYYCTRMDYWGQGTSVTVSS
VL: QIVLIQSPVIMSASPGEKVTITCSASSSVSYMHWFQQKPGTSPKLWIYSTSNLASGVPARFSGSGSGTSYSLTISRMEAEDAATYYCQQRSSYPPTFGAGTKLELK
notes: Human chimeric antibody of IgG class; also called pKANTEX3411 CDR v1
B2: anti-PERP CDR-modified antibody ver.2 (antibody, V domains shown)
VH: B1 VH with S59G
VL: B1 VL
notes: Human chimeric antibody of IgG class; also called pKANTEX3411 CDR v2
B3: anti-PERP CDR-modified antibody ver.3 (antibody, V domains shown)
VH: B1 VH with S59Y
VL: B1 VL
notes: Human chimeric antibody of IgG class; also called pKANTEX3411 CDR v3
B4: anti-PERP CDR-modified antibody ver.5 (antibody, V domains shown)
VH: B1 VH with S61A
VL: B1 VL
notes: Human chimeric antibody of IgG class; also called pKANTEX3411 CDR v5
B5: anti-PERP CDR-modified antibody ver.6 (antibody, V domains shown)
VH: B1 VH with S59G, S61A
VL: B1 VL
notes: Human chimeric antibody of IgG class; also called pKANTEX3411 CDR v6
B6: anti-PERP mouse monoclonal antibody KM3411 (hybridoma FERM BP-8643) (antibody, V domains shown)
VH: B1 VH with S59N
VL: B1 VL
notes: Mouse IgG1; also called anti-PERP mouse antibody KM3411
B7: anti-PERP humanized antibody HV4LV4 (antibody, V domains shown)
VH: QVQLQESGPGLVKPSQTLSLTCTVSGFSISTEYAWNWIRQFPGKGLEWIGYIGYTGRTNYAPSLKSRITISRDTSKNQFSLQLSSVTAEDTATYYCTRMDYWGQGTLVTVSS
VL: DIQMTQSPSSLSASVGDRVTITCSASSSVSYMHWFQQKPGKAPKLWIYSTSNLASGVPSRFSGSGSGTDYTLTISSMQPEDFATYYCQQRSSYPPTFGQGTKVEIK
B8: anti-PERP humanized antibody HV4LV3 (antibody, V domains shown)
VH: B7 VH
VL: B7 VL with F35Y
B9: anti-PERP humanized antibody HV4LV7 (antibody, V domains shown)
VH: B7 VH
VL: B7 VL with Q3V, T5I, A42S
B10: anti-PERP humanized antibody HV8LV0 (antibody, V domains shown)
VH: B7 VH with S30T, K44N, G45R, I49M
VL: B7 VL with F35Y, W46L, Y70F, M77L
B11: anti-PERP humanized antibody HV8LV7 (antibody, V domains shown)
VH: B7 VH with S30T, K44N, G45R, I49M
VL: B7 VL with Q3V, T5I, A42S

Assays:
[1] = molecular target: T1, polypeptide encoded by the human PERP gene, endogenously expressed on human cancer cell lines (PC9 / PC-9, … (human, UniProt Q96FX8 1-193)); assay: flow cytometry on PC9 cells expressing PERP
T1 construct: Four-transmembrane protein of 193 amino acids; also called hPERP; THW

[2] = molecular target: T1, polypeptide encoded by the human PERP …; assay: flow cytometry on Colo 205 cells
[3] = molecular target: T2, human PERP with C-terminal myc-His tag expressed on CHO/DG44 cells from plasmid pcPERPmH (human, UniProt Q96FX8 1-193); assay: FMAT fluorescent cell staining, hybridoma culture supernatant, PERP/CHO against CHO/DG44 cells
T2 construct: The gene was cloned from plasmid HEMBA 1006335 (GenBank AK 074585); also called PERP/CHO cell; CHO/hPERP
Method: With regard to the cells for the assay, PERP/CHO cells and CHO/DG44 cells produced in (1) of Reference Example 1 were used. The cells which were cultured on an Iscove's Modified Dulbecco's medium containing 10% fetal bovine serum (manufactured by Invitrogen) for 2 to 3 days and peeled off with a Tripsin-EDTA solution (manufactured by Invitrogen) were suspended on the same medium, seeded onto a black 96-well plates for FMAT at 7×10³ cells/100 μL medium/well and cultured overnight. Mouse anti-serum to be immunized or cultured supernatant of hybridoma cells was dispensed into the plate at 5 μL/well as a primary antibody, and ALEXA 647-labeled anti-mouse immunoglobulin G (H+ L) (manufactured by Molecular Probe) was dispensed at 50 μL/well as a secondary antibody, and the plate was allowed to stand for 4 hours under shading the light. Wavelength of 650 to 685 nm excited by laser beam of 633 nm He/Ne was measured by an FMAT 8100 HTS system (manufactured by Applied Biosystem).

[4] = molecular target: T1, polypeptide encoded by the human PERP …; assay: flow cytometry on PC-9 cells
Method: (§1) Binding activity of an anti-PERP humanized antibody having no consensus sequence of an N-linked sugar chain purified in (5) of Example 3 to CHO/PERP (KC1359) expressing a polypeptide encoded by the PERP gene, or PC9 cells used in (1) of Example 1 was measured using a fluorescent antibody technique as described below.
CHO/PERP or PC9 cells (2 to 3×10⁵ per well) were dispensed in a 96-well U-shaped plate, a modified antibody wherein the anti-PERP humanized antibody having no consensus sequence of an N-linked sugar chain was diluted in eight stages in a 2-fold dilution starting from 10 μg/ml using a buffer for FCM (1% BSA-PBS, 0.02% EDTA and 0.05% NaN₃) was dispensed in an amount of 100 μL/well or the modified antibody diluted in eight stages in a 5-fold dilution starting from 10 μg/ml and a reaction was carried out on ice for 30 minutes. After washing with a buffer for FCM once, a solution in which a PE-labeled anti-human IgG (H+ L) antibody (manufactured by Beckmann-Coulter) diluted 50-fold with a buffer for FCM was added thereto in an amount of 100 μL/well. After the mixture was allowed to react for 30 minutes on ice protecting from the light, it was washed with a buffer for FCM twice and fluorescence intensity was measured using a flow cytometer. […]

[5] = molecular target: T2, human PERP with C-terminal myc-His tag …; assay: flow cytometry on CHO/PERP (KC1359)
Method: as §1
CHO/PERP or PC9 cells (2 to 3×10⁵ per well) were dispensed in a 96-well U-shaped plate, a modified antibody wherein the anti-PERP humanized antibody having no consensus sequence of an N-linked sugar chain was diluted in eight stages in a 2-fold dilution starting from 10 μg/ml using a buffer for FCM (1% BSA-PBS, 0.02% EDTA and 0.05% NaN₃) was dispensed in an amount of 100 μL/well or the modified antibody diluted in eight stages in a 5-fold dilution starting from 10 μg/ml and a reaction was carried out on ice for 30 minutes. After washing with a buffer for FCM once, a solution in which a PE-labeled anti-human IgG (H+ L) antibody (manufactured by Beckmann-Coulter) diluted 50-fold with a buffer for FCM was added thereto in an amount of 100 μL/well. After the mixture was allowed to react for 30 minutes on ice protecting from the light, it was washed with a buffer for FCM twice and fluorescence intensity was measured using a flow cytometer. As a positive control, the anti-PERP human chimeric antibody KM3481 described in Reference Example 2 or the anti-PERP human chimeric antibody KM3821 (KM3821) having no consensus sequence of an N-linked sugar chain produced in Example 1 was used.

Binder | binding result [1] | binding result [5] | further results
B1 | binds | – | –
B2 | binds | – | –
B3 | binds | – | –
B4 | binds | – | –
B5 | binds | – | –
B6 | – | – | binding result [2]: binds; binding result [3]: binds
B7 | – | binds | binding result [4]: binds
B8 | – | binds | –
B9 | – | binds | –
B10 | – | – | binding activity relative to KM3821 [5]: ~0.2 fraction of the binding activity of KM3821
B11 | – | binds | –
